In US10792311B2, “Stimulation of ovarian follicle development and oocyte maturation” (The Board of Trustees of the Leland Stanford Junior …, priority 2011, dated 2020):

Experiments:
preantral follicles = test: Preantral follicle culture; format: cell-based, mice; details: preantral follicles of day 13 mice, four days
Excerpt: CNP treatment promoted the growth of preantral follicles and cultured ovarian explants: Preantral follicles (125-135 um in diameter) were isolated from ovaries of mice at day 13 of age and treated with different hormones for four days with daily monitoring of follicle diameters. […] In contrast, treatment with ANP was ineffective.
Dissection follicles of different sizes and culturing of preantral follicles: For RT-PCR analyses, early secondary follicles of 90-140 um in diameters were isolated from mice at day 13 of age whereas antral follicles (300-400 um in diameter) were isolated from prepubertal mice at day 23 of age. Preovulatory follicles (500-600 um in diameter) were isolated from prepubertal mice treated with eCG (5 IU). For follicle cultures, preantral follicles (125-145 um in diameter) were isolated from mice at day 13 of age and cultured individually in 96 well plates containing alpha-MEM (100 ul/well) with penicillin and streptomycin together with insulin, transferrin and selenium. […] The media were changed every two days and follicle growth was monitored daily by measuring follicle diameters.

ovaries from day 10 mice [1] = test: Ovarian explant cultures treated with CNP and/or FSH; format: cell-based
Protocol: Ovarian explant cultures: Ovaries from day 10 mice were placed on culture plate inserts (Millipore, Bedford, Mass.) and cultured in 400 μl of DMEM/F12 containing 0.1% BSA (Sigma), 0.1% Albumax II, insulin-transferrin-selenium, 0.05 mg/ml L-ascorbic acid and penicillin-streptomycin under the membrane insert to cover ovaries with a thin layer of medium. […] Some explants were also treated with a pan-specific protein kinase G inhibitor, Rp-8-Br-PET-cGMPS (BioLog, Bremen, Germany). At the end of culture, ovaries were fixed in Bouin's solution, paraffin embedded, and cut into continuous sections before staining with hematoxylin and eosin.

ovaries from day 10 mice [2] = test: Ovarian explant cultures treated with R-spondin2 and/or FSH; format: cell-based
Protocol: Ovarian explant cultures: Ovaries from day 10 mice were placed on culture plate insert (Millipore, Bedford, Mass.) and cultured in 400 μl of DMEM/F12 (Gibco) containing 0.1% BSA (Sigma), 0.1% Albumax II (Gibco), insulin-transferrin-selenium (Gibco), 0.05 mg/ml L-ascorbic acid (Sigma) and penicillin-streptomycin (Gibco) under the membrane insert to cover ovaries with a thin layer of medium. […] Explants treated with non-immune IgG or boiled (100 C, 15 min) R-spondin2 antibodies served as negative controls. At the end of culture, ovaries were fixed in Bouin's solution, paraffin embedded, and cut into continuous sections before staining with hematoxylin and eosin. Only follicles with clearly stained oocyte nucleus were counted to prevent recounting of the same follicle.

[3] = test system: canonical Wnt signaling pathway; test: TCF-luciferase assay in cultured ovarian somatic cells; format: cell-based; details: somatic cells of day 10 mice; for TCF-luciferase activity: agent alone
Protocol: TCF-luciferase assay: Ovarian somatic cells from day 10 mice were cultured overnight at 37 C in McCoy's 5a medium containing 10% fetal bovine serum (FBS; Gibco) before evaluation of Wnt signaling based on the TCF-luciferase assay. Cells were transfected with 1 μg of pTOP FLASH or pFOP FLASH plasmid together with 0.1 μg of pRL-TK plasmid using lipofectamine 2000 (Invitrogen, Carlsbad, Calif.) for 6 h. […] Luciferase activity expressed as relative light unit was determined using a Dual Luciferase Reporter Assay Kit (Promega) with a luminometer (Bio-Rad).
Luciferase activity was measured as an index of Wnt signaling. […] To estimate the number of viable cells, cells were also cultured with increasing doses of R-spondin2 with or without Wnt3a before measurement of mitochondrial reductase (MTS) activity.

[4] = test system: somatic cells obtained from day 10 ovaries; test: Cell proliferation (MTS) assay of ovarian somatic cells; format: cell-based, mice; details: for MTS activity (viable cell number): agent alone, 2 days
Protocol: Cell proliferation assay: Ovaries obtained from day 10 mice were digested with collagenase I, DNase, and trypsin. After centrifuging at 270×g for 10 min., cell pellet was washed and plated in a 96-well plate (BD Falcon, Franklin Lakes, N.J.) in McCoy's 5a medium (Gibco BRL, Grand Island, N.Y.) containing 4 mg/ml BSA (Sigma Aldrich Chemicals, St. Louis, Mo.), penicillin-streptomycin (Gibco) and sodium pyruvate (Gibco) for 3 h at 37 C. After washing twice with PBS to remove floating oocytes, cells were cultured in serum-free McCoy's 5a medium containing different factors for 48 h. MTS (3-(4,5-dimethylthiazol-2-yl)-5-(3-carboxymethoxyphenyl)-2-(4-sulfophenyl)-2H-tetrazolium) assay was performed using Cell Titer 96 Aqueous One Solution Cell Proliferation Assay (Promega, Madison, Wis.) by adding the substrate for 2 h before measuring absorbance at 490 nm.

intestinal stem cell = details: 100 μg/adult mice; cited from earlier work
[5] = treatment with R-spondin2 and/or FSH

## Nc1nc2c(nc(Br)n2[C@@H]2O[C@@H]3COP(=O)(O)O[C@H]3[C@H]2O)c(=O)[nH]1 [8-bromo-cGMP, reference compound]
Preantral follicles
  Follicle size (diameter): induced

## CC[C@H](C)[C@@H]1NC(=O)[C@H](CCCNC(=N)N)NC(=O)[C@H](CC(=O)O)NC(=O)[C@H](CCSC)NC(=O)[C@H](CCCNC(=N)N)NC(=O)CNC(=O)CNC(=O)[C@H](Cc2ccccc2)NC(=O)[C@@H](NC(=O)[C@H](CO)NC(=O)[C@H](CO)NC(=O)[C@H](CCCNC(=N)N)NC(=O)[C@H](CCCNC(=N)N)NC(=O)[C@H](CC(C)C)NC(=O)[C@@H](N)CO)CSSC[C@@H](C(=O)N[C@@H](CC(N)=O)C(=O)N[C@@H](CO)C(=O)N[C@@H](Cc2ccccc2)C(=O)N[C@@H](CCCNC(=N)N)C(=O)N[C@@H](Cc2ccc(O)cc2)C(=O)O)NC(=O)CNC(=O)[C@H](CC(C)C)NC(=O)CNC(=O)[C@H](CO)NC(=O)[C@H](CCC(N)=O)NC(=O)[C@H](C)NC(=O)CNC1=O [ANP, reference compound]
Preantral follicles
  Follicle size (diameter): ineffective
Ovaries from day 10 mice [1]; day 10 ovaries, 4 days culture
  Ovarian weights of explants: not

## O=c1c2nc(Br)n([C@@H]3O[C@@H]4CO[P@@](O)(=S)O[C@H]4[C@H]3O)c2nc2[nH]c(-c3ccccc3)cn12 [Rp-8-Br-PET-cGMPs, Rp-8-Br-PET-cGMPS, reference compound]
Ovaries from day 10 mice [1]; explant culture
  Effect on stimulatory effects of CNP on ovarian weight: blocked the stimulatory effects of CNP
Ovaries from day 10 mice [1]; explant culture, FSH 100 ng/ml
  Effect on effects of a high dose of FSH on ovarian weight: partially suppressed the effects of a high dose of FSH

B1: DKK1: Dickkopf1, a Wnt signaling antagonist (protein, UniProt O94907 32-266, looked up)
Dickkopf-related protein 1: TLNSVLNSNAIKNLPPPLGGAAGHPGSAVSAAPGILYPGGNKYQTIDNYQPYPCAEDEECGTDEYCASPTRGGDAGVQICLACRKRRKRCMRHAMCCPGNYCKNGICVSSDQNHFRGEIEETITESFGNDHSTLDGYSRRTTLSSKMYHTKGQEGSVCLRSSDCASGLCCARHFWSKICKPVLKEGQVCTKHRRKGSHGLEIFQRCYCGEGLSCRIQKDHHQASNSSRLHTCQRH
Ovaries from day 10 mice [2]; explant cultures
  Effect on stimulatory effects of FSH on ovarian growth: not blocked
[3]
  Effect on R-spondin2- and Wnt3a-stimulated TCF-luciferase activity: blocked the stimulatory effects

B2: R-spondin2: secreted protein that regulates beta-catenin; oocyte-derived paracrine factor; recombinant human R-spondin2 (protein, UniProt Q6UXX9 22-243, looked up)
R-spondin-2: QGNRWRRSKRASYVSNPICKGCLSCSKDNGCSRCQQKLFFFLRREGMRQYGECLHSCPSGYYGHRAPDMNRCARCRIENCDSCFSKDFCTKCKVGFYLHRGRCFDECPDGFAPLEETMECVEGCEVGHWSEWGTCSRNNRTCGFKWGLETRTRQIVKKPVKDTILCPTIAESRRCKMTMRHCPGGKRTPKAKEKRNKKKKRKLIERAQEQHSVFLATDRANQ
Ovaries from day 10 mice [2]; 4 days culture
  Ovarian follicle development (morphological analyses): promotion of ovarian follicle development
Ovaries from day 10 mice [2]; 4 days culture, combined with FSH
  Ovarian weight of explants, R-spondin2 and FSH added together: further increases
Ovaries from day 10 mice [2]; day 10 ovaries, 4 days culture
  Ovarian weight of explants: increased ovarian weight in a dose-dependent manner
Ovaries from day 10 mice [2]; [5]
  Percentage of primordial and degenerated follicles: negligible changes
  Ratio of primary and percentage of secondary follicles: decreased the ratio of primary follicles accompanied by increases in the percentage of secondary follicles
[4]
  MTS activity (viable cell number): stimulated MTS activity in a dose-dependent manner
[4]; combined with Wnt3a
  MTS activity with both Wnt3a and R-Spondin2: further increases in MTS activity
[3]; 18 h, combined with Wnt3a
  TCF-luciferase activity in the presence of both Wnt3a and R-spondin2: synergistic increases
[3]; 18 h
  TCF-luciferase activity: minimal stimulation

B3: R-spondin1: secreted glycoprotein of the R-spondin family that synergizes with Wnts to activate β-catenin-dependent signaling (protein, UniProt Q2MKA7 21-263, looked up)
R-spondin-1: SRGIKGKRQRRISAEGSQACAKGCELCSEVNGCLKCSPKLFILLERNDIRQVGVCLPSCPPGYFDARNPDMNKCIKCKIEHCEACFSHNFCTKCKEGLYLHKGRCYPACPEGSSAANGTMECSSPAQCEMSEWSPWGPCSKKQQLCGFRRGSEERTRRVLHAPVGDHAACSDTKETRRCTVRRVPCPEGQKRRKGGQGRRENANRNLARKESKEAGAGSRRRKGQQQQQQQGTVGPLTSAGPA
Intestinal stem cell
  Intestinal stem cell proliferation and intestinal growth: stimulate intestinal stem cell proliferation and intestinal growth

B4: Wnt3a: Wnt ligand (protein, UniProt P56704 19-352, looked up)
Protein Wnt-3a: SYPIWWSLAVGPQYSSLGSQPILCASIPGLVPKQLRFCRNYVEIMPSVAEGIKIGIQECQHQFRGRRWNCTTVHDSLAIFGPVLDKATRESAFVHAIASAGVAFAVTRSCAEGTAAICGCSSRHQGSPGKGWKWGGCSEDIEFGGMVSREFADARENRPDARSAMNRHNNEAGRQAIASHMHLKCKCHGLSGSCEVKTCWWSQPDFRAIGDFLKDKYDSASEMVVEKHRESRGWVETLRPRYTYFKVPTERDLVYYEASPNFCEPNPETGSFGTRDRTCNVSSHGIDGCDLLCCGRGHNARAERRREKCRCVFHWCCYVSCQECTRVYDVHTCK
[4]
  MTS activity (viable cell number): stimulated MTS activity in a dose-dependent manner
[3]; 18 h
  TCF-luciferase activity: minimal stimulation
